Assay results published in patent US20080214457A1 (METROHEALTH SYSTEM, published 2008).
Where no end group is shown, it is not given here.

Biological target: T1, H558-YFPf (human, UniProt Q14524 538-577)
T1 construct: Expressed in HEK293 cells; also called hNav1.5 protein fragment centered on H558 fused to YFP; not shown: enhanced yellow fluorescent protein from the pEYFP-N3 vector
Experiment: three-channel FRET normalized to CFP, fragments coexpressed in HEK293 cells
Text: Three-channel FRET ratios were normalized to CFP and reported as FRETc as previously described by Vanderklish and colleagues, Proc Natl Acad Sci USA. 2000; 97:2253-2258. […] In all experiments, FRET was absent from the cell membrane, which is consistent with the inability of these protein fragments to traffic to the membrane. […] More importantly, hNav1.5 interaction occurs preferentially when 1 protein expresses R558 and the other expresses H558.

B1: R558-CFPf (other, human, UniProt Q14524 538-577, looked up)
chain: GSEADFADDENSTAGESESHRTSLLVPWPLRRTSAQGQPS
modifications: also: fused to CFP, linker and end not given here
notes: Expressed in HEK293 cells; not shown: enhanced cyan fluorescent protein from the pECFP-N3 vector
fold increase in FRETc compared with the homotypic FRETc values: 3 fold
